{
  "source": "patent US20030180282A1",
  "about": "“Method of treatment of thrombotic events” (priority 2002, published 2003)",
  "molecules": {"B1": {"name": "t-PA: recombinant tissue plasminogen activator, thrombolytic agent (Genentech) (protein, UniProt P00750 36-562, looked up)", "Tissue-type plasminogen …": "SYQVICRDEKTQMIYQQHQSWLRPVLRSNRVEYCWCNSGRAQCHSVPVKSCSEPRCFNGGTCQQALYFSDFVCQCPEGFAGKCCEIDTRATCYEDQGISYRGTWSTAESGAECTNWNSSALAQKPYSGRRPDAIRLGLGNHNYCRNPDRDSKPWCYVFKAGKYSSEFCSTPACSEGNSDCYFGNGSAYRGTHSLTESGASCLPWNSMILIGKVYTAQNPSAQALGLGKHNYCRNPDGDAKPWCHVLKNRRLTWEYCDVPSCSTCGLRQYSQPQFRIKGGLFADIASHPWQAAIFAKHRRSPGERFLCGGILISSCWILSAAHCFQERFPPHHLTVILGRTYRVVPGEEEQKFEVEKYIVHKEFDDDTYDNDIALLQLKSDSSRCAQESSVVRTVCLPPADLQLPDWTECELSGYGKHEALSPFYSERLKEAHVRLYPSSRCTSQHLLNRTVTDNMLCAGDTRSGGPQANLHDACQGDSGGPLVCLNDGRMTLVGIISWGLGCGQKDVPGVYTKVTNYLDWIRDNMRP"}},
  "key": {"platelets [1]": {"tested_on": "platelets", "test": "platelet aggregation in platelet-rich plasma of AMI patients during first 24 hours after r-PA or t-PA", "format": "in vivo, human", "conditions": "3, 6, 12, 24 hours; r-PA: all agonists except ristocetin", "excerpt": "Twenty-three consecutive patients admitted to the emergency rooms of St. Agnes Hospital, or the Union Memorial Hospital between July and December of 1996 with a diagnosis of acute myocardial infarction were included. All patients were enrolled in the randomized trial of Reteplase (r-PA) versus accelerated Alteplase (t-PA) for the treatment of acute myocardial infarction, (GUSTO-III trial). […]\nThe schedule of blood drawing, sample preparation and processing were critical issues of the study design, and were monitored by an independent observer. […]\nCitrate and whole blood were immediately mixed 1:9 and then centrifuged at 1200 g for 2.5 minutes in order to obtain platelet-rich plasma (PRP) which was kept at room temperature for use within 1 hour. Platelet counts were determined for each PRP sample with Coulter Counter ZM (Coulter Co., Hialeah, Fla.). […] PA was expressed as the maximum percentage of light transmittance change from the baseline using platelet-poor plasma as a reference at the end of the recording time. PA curves were recorded for 4 minutes and analyzed according to internationally established standards (see, e.g. Ruggeri, Z. M. (1994) Semin. Hemat. 31:229-239). […]"}, "platelets [2]": {"tested_on": "platelets", "test": "in vitro comparison of TNK versus t-PA on platelet activation and surface receptor expression (15 parameters)", "format": "cell-based, human", "conditions": "TNK 12 μg/mL, t-PA 4 μg/mL, 30 minutes", "experimental": "Blood samples for the in vitro study were obtained from 9 healthy volunteers. None of the subjects smoked or had hypertension, diabetes, or an abnormal hematocrit. None had received aspirin or any other antiplatelet drugs. All subjects underwent blood sampling after at least 30 minutes of rest and 2 or more hours of fasting. Blood was drawn from an antecubital vein between 8 am and 10 am in order to avoid any diurnal influence. A 21-gauge butterfly needle was used to draw blood into a tube containing 3.8% sodium citrate (1:9 volume); the first 1.5 mL of free running blood was discarded. One tube was kept as an internal control. A second tube was incubated with tenecteplase (TNK) for 30 minutes at room temperature in order to achieve a final concentration of 12 μg/mL. […]\nFor the platelet aggregation (PA) studies, platelet-rich plasma (PRP) was first isolated. […] Platelet counts were determined for each PRP sample with a Coulter Counter ZM (Coulter Co., Hialeah, Fla.). […] Platelet aggregation was determined by using a 4 channel Chrono-log Lumi-Aggregometer (model 560-Ca) and expressed as the maximum percentage of light transmittance change (% max) from the baseline at the end of the recording time. […] Platelet aggregability curves were recorded for 6 minutes and analyzed according to internationally established standards (see, e.g., Ruggeri, Z. M. (1994) Semin. Hemat. 31:229-239). […]"}},
  "data": [
    {"molecule": "B1", "values": [
      {"measurement": "platelet aggregation, change between baseline and other time points", "setting": "platelets [1]", "value": "no statistically significant differences"},
      {"measurement": "platelet function, 10 of 15 parameters, compared with baseline DPBS values", "setting": "platelets [2]", "value": "diminished platelet function"}
    ]}
  ]
}
